doi:10.1101/2024.10.10.617615

Biological target: SpyCatcher003
Test: gel shift assay of isopeptide ligation

| Substance | fold change of ligation rate against Oxo (slower) [fold] | fold change of ligation rate against Oxo (faster) [fold] | fold change of ligation rate against Val^S3 (slower) [fold] |
| --- | --- | --- | --- |
| SpyTag003 Ile^S6 thioamide variant (peptide) | 5.4 | – | – |
| SpyTag003 Val^S7 thioamide variant (peptide) | – | 1.4 | – |
| SpyTag003 Met^S8 thioamide variant (peptide) | > 2000 | – | – |
| SpyTag003 Val^S3 thioamide variant (peptide) | – | 1.8 | – |
| SpyTag003 Val^S3-Pro^S4 dual thioamide peptide | 1.2 | – | 2 |
| SpyTag003 Val^S9 thioamide variant (peptide) | 1.6 | – | – |
| SpyTag003 Ala^S11 thioamide variant (peptide) | 38 | – | – |
